EC50 data for 2 molecules are collected here from publication PMC11154707, “Polymer-based antibody mimetics (iBodies) target human PD-L1 and function as a potent immune checkpoint blocker” (The Journal of Biological Chemistry, 2024).

In assay [1] the target is T1, human PD-L1, membrane-bound, on hPD-L1-transfected CHO cells (human, UniProt Q9NZQ7 19-290).
T1 construct: The catalogue suffix -CH may mean a C-terminal His tag (surmise); also called CHO PD-L1; source: CHO cells, stably transfected (pCMV3-full-length human PD-L1, hygromycin selection), on cells
Briefly: flow cytometry on cells; dilution series on hPD-L1-transfected and wild-type CHO cells in PBS, 30 min at 4 °C; ATTO488 fluorescence; EC50 from MFI by 4-parameter logistic fit. Conditions: one partner purified.

Assay [2] concerns the target T2, recombinant human PD-L1 extracellular domain (residues 19–239), His-tagged (human, UniProt Q9NZQ7 19-239).
T2 construct: programmed death-ligand 1 (PD-L1/CD274/B7-H1), human, extracellular domain residues 19-239, subcloned from pCMV3-full-length human PD-L1 into pTT28; probably removed on secretion (surmise); also called rhPD-L1; recombinant extracellular hPD-L1; source: HEK293-6E, transiently transfected, secreted, purified (Ni-NTA Agarose, dialysis); not shown: His8, C-terminal, kept
Briefly: ELISA; 100 ng/well rhPD-L1 coated directly on the plate (TBS, 1 h RT), casein block; dilution series of biotinylated binder in TBS with 0.1% Tween-20, 1 h RT; neutravidin-HRP, chemiluminescence; EC50 by 4-parameter logistic fit. Conditions: both partners purified.

Assay [3] addresses T2, recombinant human PD-L1 extracellular …. The assay can be described thus: ELISA; 100 ng/well rhPD-L1 coated directly on the plate, casein block; dilution series of ATTO488-WL12 in TBS with 0.1% Tween-20, 1 h RT; read by ATTO488 fluorescence intensity; EC50 by 4-parameter logistic fit. The settings on record: both partners purified.

T1 sequence (Q9NZQ7 19-290): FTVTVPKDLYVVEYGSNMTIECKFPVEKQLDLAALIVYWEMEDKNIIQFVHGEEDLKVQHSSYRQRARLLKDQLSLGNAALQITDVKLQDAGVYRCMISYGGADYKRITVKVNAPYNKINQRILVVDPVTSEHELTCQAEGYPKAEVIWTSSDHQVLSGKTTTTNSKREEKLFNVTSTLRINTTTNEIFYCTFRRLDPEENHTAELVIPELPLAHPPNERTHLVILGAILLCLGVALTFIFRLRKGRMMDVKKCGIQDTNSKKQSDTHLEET
T2 sequence (Q9NZQ7 19-239): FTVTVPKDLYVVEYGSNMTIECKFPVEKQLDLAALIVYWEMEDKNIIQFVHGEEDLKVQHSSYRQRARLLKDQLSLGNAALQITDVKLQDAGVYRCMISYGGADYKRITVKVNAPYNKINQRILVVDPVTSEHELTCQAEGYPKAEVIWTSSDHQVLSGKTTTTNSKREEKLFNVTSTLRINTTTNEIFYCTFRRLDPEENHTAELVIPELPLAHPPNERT

B1: iBody 1 (HPMA copolymer carrying WL12, ATTO488 and biotin) (other)
chain: YANPHLPWSWXXXCG
modifications: ClAc on the N-terminus (peptide cyclised, macrocyclic); MeAla at 2; Hyp at 7; Trp(Me) at 10; MeNle at 11 and 12; Orn at 13; C-terminal amide; amino group of the peptide bound to the HPMA copolymer
As to B1, the EC50 in assay [1] worked out at 6.6 nM; in assay [2] it was 0.29 nM.

B2: ATTO488-WL12 (peptide)
chain: YANPHLPWSWXXXCG
modifications: ClAc on the N-terminus (peptide cyclised, macrocyclic); MeAla at 2; Hyp at 7; Trp(Me) at 10; MeNle at 11 and 12; Orn at 13; C-terminal amide; ATTO488 fluorophore (site not told in the text shown)
Turning to B2, the EC50 in assay [3] turned out to be 5.3 nM; in assay [1] it was 270 nM.
